Results: the Immune Epitope Database (IEDB)

Key:
HLA-B*40:01 = experiment: IEDB peptide-MHC binding, purified MHC/competitive/radioactivity; filed as Kd, often an IC50 or EC50 that approximates it; ≥ and ≤ were set here for values at or beyond the usual limits of such assays
HLA-B*44:02 = experiment: as above
HLA-B*40:02 = experiment: as above
HLA-B*45:01 = experiment: as above
HLA-B*44:03 = experiment: as above
HLA-B*18:01 = experiment: as above
HLA-A*26:01 = experiment: as above; details: source organism: Dengue virus 1 Brazil/97-11/1997
HLA-B*53:01 = experiment: as above
HLA-B*35:01 = experiment: as above
HLA-B*51:01 = experiment: as above; details: source organism: Dengue virus 2 Jamaica/1409/1983
HLA-B*15:01 = experiment: IEDB peptide-MHC binding, purified MHC/competitive/fluorescence; filed as Kd, often an IC50 or EC50 that approximates it; ≥ and ≤ were set here for values at or beyond the usual limits of such assays; details: source organism: Bacillus anthracis str. A0488
[1] = source organism: SARS coronavirus Tor2
[2] = source organism: Dengue virus 1 Brazil/97-11/1997
[3] = source organism: Mammarenavirus juninense
[4] = source organism: Lymphocytic choriomeningitis virus (strain WE)
[5] = source organism: Dengue virus 2 Jamaica/1409/1983
[6] = source organism: Mammarenavirus lassaense
[7] = source organism: Dengue virus 3 Martinique/1243/1999
[8] = source organism: Mammarenavirus brazilense

Sequence: DEFIQRYKL
- Kd (HLA-B*40:01; [1]): ≥ 23.9 µM
- Kd (HLA-B*44:02; [1]): 15.9 µM
- Kd (HLA-B*40:02; [1]): 2.5 µM
- Kd (HLA-B*45:01; [1]): ≥ 25.9 µM
- Kd (HLA-B*44:03; [1]): 8.8 µM
- Kd (HLA-B*18:01; [1]): 0.0479 µM

Sequence: MSIPATLFVW
- Kd (HLA-A*26:01): 15.6 µM
- Kd (HLA-B*53:01; [2]): 0.414 µM

Sequence: AETGSQGVYM
- Kd (HLA-B*40:01; [3]): 3.03 µM
- Kd (HLA-B*44:02; [3]): 0.304 µM
- Kd (HLA-B*40:02; [3]): 0.184 µM
- Kd (HLA-B*45:01; [3]): 13.6 µM
- Kd (HLA-B*44:03; [3]): 1.04 µM
- Kd (HLA-B*18:01; [3]): ≥ 70.4 µM

Sequence: FEIKSAKKF
- Kd (HLA-B*40:01; [1]): 1.71 µM
- Kd (HLA-B*44:02; [1]): 0.0159 µM
- Kd (HLA-B*40:02; [1]): 0.621 µM
- Kd (HLA-B*45:01; [1]): 18 µM
- Kd (HLA-B*44:03; [1]): 0.0353 µM
- Kd (HLA-B*18:01; [1]): 1.08 µM

Sequence: DPVVYDAKF
- Kd (HLA-B*35:01; [2]): 0.959 µM
- Kd (HLA-B*53:01; [2]): 0.648 µM

Sequence: REPTDQKQF
- Kd (HLA-B*40:01; [4]): ≥ 20.4 µM
- Kd (HLA-B*44:02; [4]): 1.34 µM
- Kd (HLA-B*40:02; [4]): 6.29 µM
- Kd (HLA-B*45:01; [4]): ≥ 77.7 µM
- Kd (HLA-B*44:03; [4]): 8.94 µM
- Kd (HLA-B*18:01; [4]): ≥ 77.5 µM

Sequence: LPAIVREAIK
- Kd (HLA-B*51:01): ≥ 69.6 µM
- Kd (HLA-B*35:01; [5]): 5.5 µM
- Kd (HLA-B*53:01; [5]): 4.65 µM

Sequence: TENLVIEGPT
- Kd (HLA-B*40:01; [1]): ≥ 42.9 µM
- Kd (HLA-B*44:02; [1]): 14 µM
- Kd (HLA-B*40:02; [1]): 0.721 µM
- Kd (HLA-B*45:01; [1]): 1.83 µM
- Kd (HLA-B*44:03; [1]): ≥ 29.1 µM
- Kd (HLA-B*18:01; [1]): ≥ 56.4 µM

Sequence: GEPKTVKVL
- Kd (HLA-B*40:01; [6]): 18.8 µM
- Kd (HLA-B*44:02; [6]): ≥ 77.9 µM
- Kd (HLA-B*40:02; [6]): 0.566 µM
- Kd (HLA-B*45:01; [6]): ≥ 77.7 µM
- Kd (HLA-B*44:03; [6]): ≥ 78.1 µM
- Kd (HLA-B*18:01; [6]): ≥ 77.5 µM

Sequence: SELAKGVAL
- Kd (HLA-B*40:01; [1]): 0.00335 µM
- Kd (HLA-B*44:02; [1]): 0.132 µM
- Kd (HLA-B*40:02; [1]): 0.0141 µM
- Kd (HLA-B*45:01; [1]): 0.401 µM
- Kd (HLA-B*44:03; [1]): 0.175 µM
- Kd (HLA-B*18:01; [1]): 1.11 µM

Sequence: SESDLEFSW
- Kd (HLA-B*40:01; [6]): 14.9 µM
- Kd (HLA-B*44:02; [6]): 0.00902 µM
- Kd (HLA-B*40:02; [6]): 0.414 µM
- Kd (HLA-B*45:01; [6]): 1.65 µM
- Kd (HLA-B*44:03; [6]): 0.0074 µM
- Kd (HLA-B*18:01; [6]): 0.277 µM

Sequence: TPQPMELKY
- Kd (HLA-B*35:01; [7]): 0.0106 µM
- Kd (HLA-B*53:01; [7]): 0.0184 µM

Sequence: REVSTAAVT
- Kd (HLA-B*40:01; [1]): 0.112 µM
- Kd (HLA-B*44:02; [1]): 16 µM
- Kd (HLA-B*40:02; [1]): ≥ 21.1 µM
- Kd (HLA-B*45:01; [1]): 0.0303 µM
- Kd (HLA-B*44:03; [1]): 6.86 µM
- Kd (HLA-B*18:01; [1]): 16.9 µM

Sequence: EEGNLLDSYF
- Kd (HLA-B*40:01; [1]): ≥ 41.8 µM
- Kd (HLA-B*44:02; [1]): 0.00388 µM
- Kd (HLA-B*40:02; [1]): ≥ 70.8 µM
- Kd (HLA-B*45:01; [1]): ≥ 20.2 µM
- Kd (HLA-B*44:03; [1]): 0.0117 µM
- Kd (HLA-B*18:01; [1]): 10.7 µM

Sequence: REVLSDREL
- Kd (HLA-B*40:01; [1]): 0.0156 µM
- Kd (HLA-B*44:02; [1]): 1.22 µM
- Kd (HLA-B*40:02; [1]): 0.102 µM
- Kd (HLA-B*45:01; [1]): 1.39 µM
- Kd (HLA-B*44:03; [1]): 1.12 µM
- Kd (HLA-B*18:01; [1]): 7.33 µM

Sequence: QSRKEFMSM
- Kd (HLA-B*15:01): 0.0666 µM

Sequence: QELYSPLFL
- Kd (HLA-B*40:01; [1]): 0.102 µM
- Kd (HLA-B*44:02; [1]): 0.205 µM
- Kd (HLA-B*40:02; [1]): 0.155 µM
- Kd (HLA-B*45:01; [1]): 2.21 µM
- Kd (HLA-B*44:03; [1]): 0.222 µM
- Kd (HLA-B*18:01; [1]): 5.57 µM

Sequence: GETPIAYRNV
- Kd (HLA-B*40:01; [1]): 1.65 µM
- Kd (HLA-B*44:02; [1]): ≥ 38.1 µM
- Kd (HLA-B*40:02; [1]): 0.281 µM
- Kd (HLA-B*45:01; [1]): 0.698 µM
- Kd (HLA-B*44:03; [1]): ≥ 22.7 µM
- Kd (HLA-B*18:01; [1]): ≥ 59.5 µM

Sequence: SEIQLQRLC
- Kd (HLA-B*40:01; [8]): 1.77 µM
- Kd (HLA-B*44:02; [8]): 0.285 µM
- Kd (HLA-B*40:02; [8]): 0.0685 µM
- Kd (HLA-B*45:01; [8]): 0.99 µM
- Kd (HLA-B*44:03; [8]): 0.327 µM
- Kd (HLA-B*18:01; [8]): 10.5 µM
